The values that follow come from the domain aggregation screens of Martell et al. (2025).

The series is described as follows: soluble fraction after stress (log2 fold change); higher = more stays soluble; pooled small domains, quantitative proteomics. To be noted: stress: 50 degC. The gist of the method:
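Custom libraries of small protein domains were pooled and measured in a high-throughput format, with quantitative proteomics as the read-out. Each library was stressed at 50°C. The value is the log2 fold change in the amount of each protein that stays soluble after stress, used as a measure of aggregation propensity; higher values mean more of the protein stays soluble.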
In the case of “HMGPSLDAVREQIRDLIAEEDKSAPYSDLSLVAELEKRGIHISRRTIAKYRGEMGIPNSDQRRYF”, the “soluble fraction (log2)” value was determined as 0.0495.
Consider “HMRQKTTFFATESFELPNGEKVEEGQIFRLNDGAFNIAEQQGITRFLTSEANYGRMIAANAEVEKAKLDA”, for which the “soluble fraction (log2)” value was 0.268.
As for “HMEAISIYPNPTDNELHLSTSVQEVRIYNMYGIEVTRAANTDRLAVSHLPKGVYLVHADGAVLKMIK”, the figure is -1.26; as for “HMQKFINQEHEKAYNLMLEKDYQQALKIFDDLIYLFPNEANLLSDRGVIFIHLNKKEAALQDFDQAVF”, -2; as for “HMKELAADFSRRIINARTSKGWSQADLGQRMAETINVIKSAESGKPPTDAVVKKFETVLGVILM”, -0.641.
As for “HMNNVDQLIEQYKTLPGGLLPLLHAIKHALGYIPESTVGSIAKGFNLSRAEVHGVISFYHDFNTQP”, the figure is 0.0707.
“HMGKKQLVVDLQSIITDVPAALKSYGLEIGQDGKSLIYTYDTKGERTGITTLLNDLQKAGLQMTDMKTQQ”: the “soluble fraction (log2)” value amounted to 0.0536.
As for “HMQNDILIQADEIVGDYFDMDKEALKMNKQAVIADIEKRQATAQGDEASALHYAKQKVENEFEDDGSQKD”, the figure is 0.185.
Turning to “HMSGALDTVVGIRMLKLLSTPIEKSKAFQVGIINKDGKKLRDPTSGERQHYTFLNRFVFKVQYALMRS”, the “soluble fraction (log2)” value was -0.211.
Consider “HMSEDTYNTLTKGTRVYNGVDYGAKYGYNPLYYFLNYNDLRIAYGADPAKLVEHYALFGIKENRVANRQIT”, for which the “soluble fraction (log2)” value is -0.098.
Consider “HMNEMIFNQKKIGQFFMNPETNSPMIYPLELGHKMKIIELKNGWYNVTDEKTGLNGWVKEEDFGVTKPLDS”, for which the “soluble fraction (log2)” value was -0.205.
As for “HMSVNAPMPGKIVNVLVSEGQKVNSGDVLLILEAMKMQNEIAATQAGTVKAINVAAGQSVKVGDALVN”, the figure is 0.108.
The value for “HMRGETSYANDIIKRLKQANLIVVEGTLYPLLNRLKKDGLLHYEWRESQQGPPRKYYGLTEEGEA” was -0.132; that for “HMRPHDDHLREQLLGIATETIARTGVEGLSLRTLATDAGTSTSAVYQLFGSRAALLDAVYLRVLE” was -1.26.
As for “HMSEPTVVAINETLTSERLDRYLTTQLPHISRGGIQRLLRKGNILVDGKPAKPTQHPVAGQTVEITWPIPK”, the figure is -0.359; as for “HMAGATDTVRNLLERQIREGELLPGQRLPTEPELAARLGVSRNSLREALQSLEDSGLIVKRHGIGTFVTE”, 0.0848; as for “HMKLQIQNIEIDKKISELAEGVSAEKLPFLAKLIDRSKLLNDKGEINEDSVKAAIEEVVKAFPDFK”, 0.081.
“HMVVKLTQEQDRFIKTFNDKSLAFYYISSWGWGSFLRNGIGGVYEGDKTPFTLDEKEKMLNAIINGYEVI”: the “soluble fraction (log2)” value is -1.82.
The value for “HMGEVVSAPMPGTILSIKVSQGQTVKRGQVLLILEAMKMENEIVAPRDGVVVQISTTQGASVETGAPLVVL” was -0.0677.
With “HMNMAEETLDTAAKILKAAEEEFMEKGYGNAKMMSIAARAGVSHSMLHYYYRSKGKLFQMIFDEKA”, the “soluble fraction (log2)” value was -1.4.
Regarding “HMNPIDAHVGARVRLRRMLIGMSQEKLGELLGVTFQQIQKYEKGANRIGASRLYEVSRVLDVPVQYFFDDM”, the “soluble fraction (log2)” value was -3.47.
The value for “HMWTIDPLDWKTENADQIVEKVMSEAKENAIILLHDRYEASVEAALRIVDLLKEQGYTFVTADKLV” was -0.257; that for “HMANKTVPNVSGKTVAEARAIIENQSLQVGEEKEEYSDSVAEGYIIRTNPTAGSQKKEQSKIDLVVSKG” was 0.203; that for “HMSNLENSLNESLSLLKSNKYNEALEILKKIEIEDSRVFFLLGTIYSVMKNINLGEEFLIKASK” was -1.48.
As for “HMSKPTLTLKSNAYPYNLNGERINNYLGFTYIKKGATLNYQGSKRINGQNYYYIGDGAYIKNTTVGSTNN”, the figure is -1.51; as for “HMEKNILPDTSPEKQYEFATSFLKVGDYSTAERAFREFVINNSEHKLAGNAQYWYAETFRIRQ”, -0.101; as for “HMEDPKLAQLTEQERKILDLIADGLTNRQIAEKMFLAEKTVKNYVSTILAKMGMSNRSEAAAYVARLEAG”, 0.0787.
Take “HMRDIGKNIRYYREKKGYSQEQLAQLLFVTRQTVSNYETSRSRPDVETLVKLAGLLDIDVTDLIYGPR”: the “soluble fraction (log2)” value is -0.651.
For “HMRASVTYVVQVNGKLRGKLEVAPDIDPEELKKLALEVENVKHSLQGWTVKKVIVIPGKMVSIAAGK”, the “soluble fraction (log2)” value turned out to be 0.0764.
For “HMGARHPLPYPFARAHGLLLEADGERSTLWASTNVSPAALSEVMRKYAVDVIEEEPPETLSQRIAAAYAA”, the “soluble fraction (log2)” value worked out at 0.0215.
Turning to “HMASPRVWKDASSGRTLTGEFVELTKDAVKVRRANGDVVSLPLSRLTEEDITFAKGASETGGA”, the “soluble fraction (log2)” value was determined as 0.146.
Turning to “HMSKQEFVDRLRVSLSGKISPASVEDNARYYEDYINTHIRLGEPEEDVLEGLGDPRLIARSIVAAESV”, the “soluble fraction (log2)” value stood at 0.0896.
As for “HMGVGERIKARRKEIGLSAEQVAKELGVSPATVYRYESNDIMNMRIDKLEPIAKALHTTPAYLMGWE”, the figure is -0.0318; as for “HMGDAPLITVDKRTIKVNGAKAQIQVYDTTGRLVKNVSPAGKLTLIEMAKPGIFIVHTQSMSFKVVL”, -0.448; as for “HMGEVYPSDIVEKMKQANLHILEGTLYPLLTRLKNAGLLNYRWVESVTGPPRKYFVMTEEGKAAF”, 0.0419.
As for “HMAELTTVQAADILHVSRPFLIKLLDEGQIPYHRVGKHRRIRMEDVMNYKRAIDQQREAVLDQLVAEA”, the figure is -0.0408; as for “HMETKERDEQFLEMIRQNEGIIFKVASFYVDKEHPIGDLYQEVVLNLWKGYPSFRGESKYSTWIYRIALNT”, -0.0833; as for “HMKYWTISDLYSKLEEDQVELGAFSEDSNKVTVLDRQGYEHVIKILSSDVPALTELFRKKKVRFAVAG”, -0.132.
The value for “HMLYDNQLPDWAGQMVKNHGLTISPKALVILVDHIGNDLSRIENEIEKLMLNLGTRKSITEDDVEN” was -1.28.
Consider “HMRRSVYQANVLDAIKHLVDQNELATTKAIAEYIGDDYQGNVSRAIRELLADRKIKKLPKVGVLQPYEA”, for which the “soluble fraction (log2)” value is -0.285.
The value for “HMQDLAKRWVEEFGDLLYKYTLPRVSDSGIAKDLVQETFLAAWRNIDNFKGEASEKNWLFTILKNKIIDH” was -0.213; that for “HMPKELAPYDILARYYLTVNNSKQSIALLEQYLDKAGSAPAALKAKLLLAGILYPSGNKERAEKLVEEVIK” was -0.465; that for “HMFKLPRTIGTFEDSDVVIGAGKFGPYIMHNKKFVSLPKSEDPLTIGLERAIELISAKREQEKQRH” was 0.284.
The value for “HMRTMRHLSVPRQETQQILSQLKAEFALPQGARVQPDPSDSKRTLIPVKEGAESELLSRYPVVHAEP” was 0.0847; that for “HMPDLQDTLYRLVPEDGSAIGNQSLREKFLSTAKDASDADFEAARDGLVEQGKLTKGKGRGGSVRRAEP” was 0.389.
As for “HMASLIGEEKALQIALEHAGVALENVAYSQVKLENDDGRWEYDTEFYSGSKEYDYEIDASTGEILGYDHD”, the figure is -0.0337; as for “HMSKSIELMNEIKKYIEEYYLQYRQSPSTTKIAEAVGIARGTAYKYLVEMSERNMIEYDGQEISTEVTRKY”, -0.0213; as for “HMLPEGIENGDVLTRTDALDYRKWLVTGNQKRIFASTASFYGENFNYSEVKAVSDRVLDAIPDGEPV”, -0.0574.
Regarding “HMPGLDTTILSDILSLKKELPSRSAAKILIMLILAKRIEEGSLNLRTINRILNQYGYTRESLL”, the “soluble fraction (log2)” value amounted to 0.0736.
For the sequence “HMISKWGELVDLAVQLDIIQKSGSWFSMGDERIGQGANSVKDYLIANPDIAEKVEAEVRENLWKLN”, the “soluble fraction (log2)” value was -0.129.
The value for “HMSSKFKIVGEILSIKKSDILYIIEILSNNEVVKATAVEDEIKDLKIGDKILLSSKAFNPIVNK” was -0.487.
As for “HMDLDPNKPAIPIAYPRVLLNIMAEKGFSRTEVLAGSGLADSVFDKPDHRITPAQFLFILMNSFYLS”, the figure is -0.601.
The value for “HMTSAPHHIAAVLRDAIYRGVLEEGGPLHQARIAQSLGVSPIPLREALRLLETEGLVEFRGYRGAFVT” was -0.492; that for “HMTTMYKSDVKGINYDVKAKSWFLRITFNGNQIPIGHFKTEEDAINVKQQLIPYIESKDYTSILAVKAKYS” was -0.4; that for “HMKMDGESQRLLSLIKEQGGSLPIGDKSSPEAIYRLTQMSKKTFKMALGSLYKAKQVVLSPTEVRL” was -0.69.
Consider “HMNTVAGAISDLSFKVRGSEDIEKLNRLKALSIQAKLDVQGQEEAERLISELEAKYGSLGMTVDKVSGKIA”, for which the “soluble fraction (log2)” value amounted to 0.158.
Consider “HMSQEHTVPDYKDMEATVVYADLTQKGLNYEIAQETSPTIKEGNVTQTIPGMNEKVVSGDTITVFVSTGTG”, for which the “soluble fraction (log2)” value came to 0.193.
As for “HMNVNEIREMYPEGTQIVLTEMRGENQMPYGLKGTVKFVDDAGQIHMKWENGSSLALNINEDTFEKVE”, the “soluble fraction (log2)” value turned out to be 0.147.
With “HMEKKEWVIYITGAVKKPGVYRIPEGARVYQALEAAGGFTPEADRDAVNLAAMLQDGAHIKFPAVGEEV”, the “soluble fraction (log2)” value came to 0.117.
The value for “HMISVENLSNREFEIFQLIGNGFSTKEMAKKLNLSIYTVESHKKNIKEKLKLKNSSDLSKYAIQWVIMQN” was -0.503.
For the sequence “HMDPFVILGISKDSSQSEILEAYKTKRAYYQEHVFDEGDQGAQAARMLGQLDDAYQQAMELSHE”, the “soluble fraction (log2)” value was -0.062.
Turning to “HMSSDLDQYMKNIRKQHNLSKREFAKQLGISAATIVRIENGITVSPSKNLISKLAYYLQKSEVEILQDIQS”, the “soluble fraction (log2)” value was -1.08.
The value for “HMTDVIADMLTRIRNAASSKHQTVDIPSSNLKKEIAKILLEEGYIRDFIEIDDKKQGIIRITL” was -0.389.
The value for “HMPTFAEKLHEVRKARDFTQDQLAKEMNVSRQTISHWENGRAVPDIDTIKHLSQVLDYNFLV” was 0.124; that for “HMNMAVELEDGTQIFVFSEDGEFAGKRAVIADEEGRPTEENAPAGTHTLRDGRSIVVGEGGVIESVVET” was 0.0438; that for “HMENFYGYEIINPEAKKFFITMGVNRYALEQWIKNKSEYGLIIVKSLYPFDPRLKLFLEKNRERIQNLIF” was -0.566.
As to “HMSREEFLAGLEEALAGEVPASVIRENLNYYNSYISQEMAKGRTVDEIVDEIGEPRIVARTIIDSSEAAGE”, the “soluble fraction (log2)” value stood at 0.0724.
As for “HMKIELSDNEKIIYDLLSSQHVLLSEIKDKAGLSNKAWDKSTKSLRKLGLIAVEKKDDDIYISKL”, the figure is -0.0233.
